For orientation: Km means the concentration of substrate that gives half-maximal velocity. In general, Vmax refers to the rate approached at saturating substrate.

Km and Vmax data for 1 substance are collected here from paper PMC3515676.

What all share (test): purified protein
Type in all cases: biochemical, Danio rerio

In series [1] the test system is C[C@H](CCC(=O)O)[C@H]1CC[C@H]2[C@@H]3CC[C@@H]4C[C@H](O)CC[C@]4(C)[C@H]3CC[C@]12C. The conditions noted are these: 14 μM PAP[35S], 50 mM Taps pH 8.5, 28 °C, pH 8.5.
For series [2], the system named is C[C@H](CCCO)[C@H]1CC[C@H]2[C@@H]3[C@H](O)C[C@H]4C[C@H](O)CC[C@]4(C)[C@H]3C[C@H](O)[C@]12C. Particulars: 14 μM PAP[35S], 50 mM Mes pH 6.0, 28 °C, pH 6.0.
The subject of series [3] is C[C@H](CCC(=O)NCC(=O)O)[C@H]1CC[C@H]2[C@@H]3[C@H](O)C[C@@H]4C[C@H](O)CC[C@]4(C)[C@H]3CC[C@]12C. The conditions noted are these: 14 μM PAP[35S], 50 mM Taps pH 8.5, 28 °C, pH 8.5.
In series [4] the test system is C[C@H](CCC(=O)O)[C@H]1CC[C@H]2[C@@H]3[C@H](O)C[C@@H]4C[C@H](O)CC[C@]4(C)[C@H]3CC[C@]12C. Particulars: 14 μM PAP[35S], 50 mM Taps pH 8.5, 28 °C, pH 8.5.

In the case of “Zebra danio SULT3 ST2 (ZF SULT3 ST2) (Danio rerio)”, the Km in series [1] was determined as 6.00 ± 0.55 µM; in series [2], 22.36 ± 1.47 µM; in series [3] it was 19.89 ± 1.32 µM; in series [4], 21.75 ± 2.74 µM. The Vmax was 0.00051 µmol/min/mg in series [1], 0.00254 µmol/min/mg in series [2], 0.00097 µmol/min/mg in series [3] and 0.00075 µmol/min/mg in series [4].
